Source: US20230151068A1

Target: biotinylated His-Avi-TEAD (194-411) (UniProt P28347)
Assay: SSM screen, enrichment after two rounds of sorting

| Binder | enrichment score |
| --- | --- |
| GSPDTYIERAKECCKKGDIQCCLRYFEESGDPNVMLICLFCP (designed binder) [E03T variant of SEQ ID NO: 1] | 1.19 |
| GSPDETIERAKECCKKGDIQCCLRYFEESGDPNVMLICLFCP (designed binder) [Y04T variant of SEQ ID NO: 1] | -0.87 |
| GSPDEYTERAKECCKKGDIQCCLRYFEESGDPNVMLICLFCP (designed binder) [I05T variant of SEQ ID NO: 1] | -1.77 |
| GSPDEYITRAKECCKKGDIQCCLRYFEESGDPNVMLICLFCP (designed binder) [E06T variant of SEQ ID NO: 1] | -0.92 |
| GSPDEYIETAKECCKKGDIQCCLRYFEESGDPNVMLICLFCP (designed binder) [R07T variant of SEQ ID NO: 1] | -4.07 |
| GSPDEYIERTKECCKKGDIQCCLRYFEESGDPNVMLICLFCP (designed binder) [A08T variant of SEQ ID NO: 1] | -3.84 |
| GSPDEYIERATECCKKGDIQCCLRYFEESGDPNVMLICLFCP (designed binder) [K09T variant of SEQ ID NO: 1] | 2.68 |
| GSPDEYIERAKTCCKKGDIQCCLRYFEESGDPNVMLICLFCP (designed binder) [E10T variant of SEQ ID NO: 1] | -1.57 |
| GSADEYIERAKECCKKGDIQCCLRYFEESGDPNVMLICLFCP (designed binder) [P01A variant of SEQ ID NO: 1] | 0.36 |
| GSPAEYIERAKECCKKGDIQCCLRYFEESGDPNVMLICLFCP (designed binder) [D02A variant of SEQ ID NO: 1] | -1.43 |
| GSPDAYIERAKECCKKGDIQCCLRYFEESGDPNVMLICLFCP (designed binder) [E03A variant of SEQ ID NO: 1] | -2.02 |
| GSPDEAIERAKECCKKGDIQCCLRYFEESGDPNVMLICLFCP (designed binder) [Y04A variant of SEQ ID NO: 1] | 0.26 |
| GSPDEYAERAKECCKKGDIQCCLRYFEESGDPNVMLICLFCP (designed binder) [I05A variant of SEQ ID NO: 1] | -1.2 |
| GSPDEYIARAKECCKKGDIQCCLRYFEESGDPNVMLICLFCP (designed binder) [E06A variant of SEQ ID NO: 1] | -0.68 |
| GSPDEYIEAAKECCKKGDIQCCLRYFEESGDPNVMLICLFCP (designed binder) [R07A variant of SEQ ID NO: 1] | 0.28 |
| GSPDEYIERAAECCKKGDIQCCLRYFEESGDPNVMLICLFCP (designed binder) [K09A variant of SEQ ID NO: 1] | -1.27 |
| GSPDEYIERAKACCKKGDIQCCLRYFEESGDPNVMLICLFCP (designed binder) [E10A variant of SEQ ID NO: 1] | -0.24 |
| GSIDEYIERAKECCKKGDIQCCLRYFEESGDPNVMLICLFCP (designed binder) [P01I variant of SEQ ID NO: 1] | -2.27 |
| GSPIEYIERAKECCKKGDIQCCLRYFEESGDPNVMLICLFCP (designed binder) [D02I variant of SEQ ID NO: 1] | -0.7 |
| GSPDIYIERAKECCKKGDIQCCLRYFEESGDPNVMLICLFCP (designed binder) [E03I variant of SEQ ID NO: 1] | -0.26 |
| GSPDEIIERAKECCKKGDIQCCLRYFEESGDPNVMLICLFCP (designed binder) [Y04I variant of SEQ ID NO: 1] | -0.41 |

| Binder | enrichment score |
| --- | --- |
| GSPDEYIIRAKECCKKGDIQCCLRYFEESGDPNVMLICLFCP (designed binder) [E06I variant of SEQ ID NO: 1] | -1.56 |
| GSPDEYIEIAKECCKKGDIQCCLRYFEESGDPNVMLICLFCP (designed binder) [R07I variant of SEQ ID NO: 1] | -3.98 |
| GSPDEYIERIKECCKKGDIQCCLRYFEESGDPNVMLICLFCP (designed binder) [A08I variant of SEQ ID NO: 1] | -8.31 |
| GSPDEYIERAIECCKKGDIQCCLRYFEESGDPNVMLICLFCP (designed binder) [K09I variant of SEQ ID NO: 1] | -3.03 |
| GSPDEYIERAKICCKKGDIQCCLRYFEESGDPNVMLICLFCP (designed binder) [E10I variant of SEQ ID NO: 1] | -0.65 |
| GSLDEYIERAKECCKKGDIQCCLRYFEESGDPNVMLICLFCP (designed binder) [P01L variant of SEQ ID NO: 1] | -2.9 |
| GSPLEYIERAKECCKKGDIQCCLRYFEESGDPNVMLICLFCP (designed binder) [D02L variant of SEQ ID NO: 1] | -3.53 |
| GSPDLYIERAKECCKKGDIQCCLRYFEESGDPNVMLICLFCP (designed binder) [E03L variant of SEQ ID NO: 1] | 0.32 |
| GSPDELIERAKECCKKGDIQCCLRYFEESGDPNVMLICLFCP (designed binder) [Y04L variant of SEQ ID NO: 1] | -1.81 |
| GSPDEYLERAKECCKKGDIQCCLRYFEESGDPNVMLICLFCP (designed binder) [I05L variant of SEQ ID NO: 1] | -0.38 |
| GSPDEYILRAKECCKKGDIQCCLRYFEESGDPNVMLICLFCP (designed binder) [E06L variant of SEQ ID NO: 1] | -0.4 |
| GSPDEYIELAKECCKKGDIQCCLRYFEESGDPNVMLICLFCP (designed binder) [R07L variant of SEQ ID NO: 1] | -0.39 |
| GSPDEYIERLKECCKKGDIQCCLRYFEESGDPNVMLICLFCP (designed binder) [A08L variant of SEQ ID NO: 1] | -9.93 |
| GSPDEYIERALECCKKGDIQCCLRYFEESGDPNVMLICLFCP (designed binder) [K09L variant of SEQ ID NO: 1] | -11.2 |
| GSPDEYIERAKLCCKKGDIQCCLRYFEESGDPNVMLICLFCP (designed binder) [E10L variant of SEQ ID NO: 1] | -1.83 |
| GSVDEYIERAKECCKKGDIQCCLRYFEESGDPNVMLICLFCP (designed binder) [P01V variant of SEQ ID NO: 1] | -0.59 |
| GSPVEYIERAKECCKKGDIQCCLRYFEESGDPNVMLICLFCP (designed binder) [D02V variant of SEQ ID NO: 1] | -2.34 |
| GSPDVYIERAKECCKKGDIQCCLRYFEESGDPNVMLICLFCP (designed binder) [E03V variant of SEQ ID NO: 1] | -1.39 |
| GSPDEVIERAKECCKKGDIQCCLRYFEESGDPNVMLICLFCP (designed binder) [Y04V variant of SEQ ID NO: 1] | -0.75 |
| GSPDEYVERAKECCKKGDIQCCLRYFEESGDPNVMLICLFCP (designed binder) [I05V variant of SEQ ID NO: 1] | -0.27 |
| GSPDEYIVRAKECCKKGDIQCCLRYFEESGDPNVMLICLFCP (designed binder) [E06V variant of SEQ ID NO: 1] | -1.55 |

| Binder | enrichment score |
| --- | --- |
| GSPDEYIEVAKECCKKGDIQCCLRYFEESGDPNVMLICLFCP (designed binder) [R07V variant of SEQ ID NO: 1] | -2.31 |
| GSPDEYIERVKECCKKGDIQCCLRYFEESGDPNVMLICLFCP (designed binder) [A08V variant of SEQ ID NO: 1] | -4.43 |
| GSPDEYIERAVECCKKGDIQCCLRYFEESGDPNVMLICLFCP (designed binder) [K09V variant of SEQ ID NO: 1] | -8.88 |
| GSPDEYIERAKVCCKKGDIQCCLRYFEESGDPNVMLICLFCP (designed binder) [E10V variant of SEQ ID NO: 1] | -1.77 |
| GSFDEYIERAKECCKKGDIQCCLRYFEESGDPNVMLICLFCP (designed binder) [P01F variant of SEQ ID NO: 1] | -1.3 |
| GSPFEYIERAKECCKKGDIQCCLRYFEESGDPNVMLICLFCP (designed binder) [D02F variant of SEQ ID NO: 1] | -3.41 |
| GSPDFYIERAKECCKKGDIQCCLRYFEESGDPNVMLICLFCP (designed binder) [E03F variant of SEQ ID NO: 1] | 0.32 |
| GSPDEFIERAKECCKKGDIQCCLRYFEESGDPNVMLICLFCP (designed binder) [Y04F variant of SEQ ID NO: 1] | 0.67 |
| GSPDEYFERAKECCKKGDIQCCLRYFEESGDPNVMLICLFCP (designed binder) [I05F variant of SEQ ID NO: 1] | -8.36 |
| GSPDEYIFRAKECCKKGDIQCCLRYFEESGDPNVMLICLFCP (designed binder) [E06F variant of SEQ ID NO: 1] | -1.96 |
| GSPDEYIEFAKECCKKGDIQCCLRYFEESGDPNVMLICLFCP (designed binder) [R07F variant of SEQ ID NO: 1] | -1.04 |
| GSPDEYIERFKECCKKGDIQCCLRYFEESGDPNVMLICLFCP (designed binder) [A08F variant of SEQ ID NO: 1] | -4.33 |
| GSPDEYIERAFECCKKGDIQCCLRYFEESGDPNVMLICLFCP (designed binder) [K09F variant of SEQ ID NO: 1] | -3.52 |
| GSPDEYIERAKFCCKKGDIQCCLRYFEESGDPNVMLICLFCP (designed binder) [E10F variant of SEQ ID NO: 1] | -1.6 |
| GSWDEYIERAKECCKKGDIQCCLRYFEESGDPNVMLICLFCP (designed binder) [P01W variant of SEQ ID NO: 1] | -9.1 |
| GSPWEYIERAKECCKKGDIQCCLRYFEESGDPNVMLICLFCP (designed binder) [D02W variant of SEQ ID NO: 1] | -2.95 |
| GSPDWYIERAKECCKKGDIQCCLRYFEESGDPNVMLICLFCP (designed binder) [E03W variant of SEQ ID NO: 1] | -1.4 |
| GSPDEWIERAKECCKKGDIQCCLRYFEESGDPNVMLICLFCP (designed binder) [Y04W variant of SEQ ID NO: 1] | -2.47 |
| GSPDEYWERAKECCKKGDIQCCLRYFEESGDPNVMLICLFCP (designed binder) [I05W variant of SEQ ID NO: 1] | -7.46 |
| GSPDEYIWRAKECCKKGDIQCCLRYFEESGDPNVMLICLFCP (designed binder) [E06W variant of SEQ ID NO: 1] | -1.53 |
